Laboratory results from paper doi:10.1101/2021.11.19.469356 (bioRxiv, 2021).
Values joined by “and” are separate entries in the source; they are usually repeats but may differ in a detail not shown here. Identical values can stand only once. Where no end group is shown, it is not given here.

B1: GST-ATF6αTAD (residues 1-150) (domain or fragment)
chain: MGEPAGVAGTMESPFSPGLFHRLDEDWDSALFAELGYFTDTDELQLEAANETYENNFDNLDFDLDLMPWESDIWDINNQICTVKDIKAEPQPLSPASSSYSVSSPRSVDSYSSTQHVPEELDLSSSSQMSPLSLYGENSNSLSSAEPLKE

Key:
[1] = target: T1, MED25 ACID (residues Leu389-Asn543), recombinant (human, UniProt Q71SY5 389-543); assay: pull-down
T1 sequence: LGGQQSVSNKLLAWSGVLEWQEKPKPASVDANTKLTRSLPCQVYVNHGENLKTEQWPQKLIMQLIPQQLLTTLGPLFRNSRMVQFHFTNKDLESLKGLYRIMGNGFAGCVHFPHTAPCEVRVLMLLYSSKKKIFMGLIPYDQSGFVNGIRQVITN

[2] = target: T1, MED25 ACID (residues Leu389-Asn543), …; assay: NMR titration

Binder | binding result [1] | Kd [2] | apparent Kd, second site of lower affinity (H1 face) [2]
B1 | binds | – | –
Ac-SDSTMTNYMNQLSELLGFDLNP [N-acetylated NS1 α3 peptide (RSV NS1 residues Ser118-Pro139)] | – | 17 ± 8 µM | 200 µM and 1000 µM
